Laboratory results taken from publication PMC8232673, “Hybrid-Type SELEX for the Selection of Artificial Nucleic Acid Aptamers Exhibiting Cell Internalization Activity”.

B1: Tac-A5 (ssDNA)
DNA: TCGCCTTGCCGGATCGCAGATCTGTTCCGTGTTCGTTCCTTTCCTTGTTGTGGTCCGTGAGCCTGACACC
modifications: every T at positions 21-70 is 5-[(3-indolyl)propionamide-N-allyl]-dU (Utrp); T in 5' primer region (1-20) natural
B2: ssDNA_neg (ssDNA)
DNA: TCGCCTTGCCGGATCGCAGACTTCCCCCCACTCCACTTCTTACTCCTTTCTGGTCCGTGAGCCTGACACC

Assays:
[1] = molecular target: IgG1 Fc (Homo sapiens (Human), UniProt P01857 104-328, glycosylated); assay: capillary electrophoresis; 20 mM Tris pH 7.4, 10 mM NaCl, 1 mM MgCl2, 0.05% Tween 20, 37 C; settings: tags: His; chain copies: 2; label: 5'-FAM
[2] = molecular target: FcHis (human IgG1 Fc-His, counter-target for specificity) (human, UniProt P01857 100-328); assay: capillary electrophoresis; 10 nM DNA, 4-fold protein; 20 mM Tris-HCl pH 7.4, 10 mM NaCl, 1 mM MgCl2, 0.05% Tween 20; 10 nM aptamer, 37 °C 30 min, then held at 15 °C; CE running buffer 100 mM sodium borate pH 8.35; settings: protein: commercial; tags: His; chain copies: 2; label: 5' FAM
[3] = molecular target: TROP2 FcHis (human TROP2 fused to IgG1 FcHis) (human, UniProt P09758 27-274+P01857:100-328, internal_change); assay: as above; settings: protein: commercial; IgG1 Fc-His fusion; chain copies: 2; label: 5' FAM
Sequence of TROP2 FcHis (human TROP2 fused to IgG1 FcHis) (P09758 other isoform, or with tags, fused parts or gaps): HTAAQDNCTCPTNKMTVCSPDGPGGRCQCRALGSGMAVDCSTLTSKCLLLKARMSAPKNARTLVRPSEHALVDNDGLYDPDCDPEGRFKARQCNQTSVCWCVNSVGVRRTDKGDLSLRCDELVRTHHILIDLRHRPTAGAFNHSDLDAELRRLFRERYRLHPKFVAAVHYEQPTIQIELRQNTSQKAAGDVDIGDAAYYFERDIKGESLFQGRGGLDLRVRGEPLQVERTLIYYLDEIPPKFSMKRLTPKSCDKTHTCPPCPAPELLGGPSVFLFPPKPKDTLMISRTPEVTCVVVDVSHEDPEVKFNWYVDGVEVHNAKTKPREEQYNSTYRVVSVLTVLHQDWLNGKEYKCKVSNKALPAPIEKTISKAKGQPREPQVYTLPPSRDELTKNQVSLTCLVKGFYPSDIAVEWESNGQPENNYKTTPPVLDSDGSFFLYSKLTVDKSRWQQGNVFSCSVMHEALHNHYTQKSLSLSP

Row | Binder | Kd [1] [nM] | binding result [2] | binding result [3]
1 | B1 | > 1000 | – | –
2 | B2 | – | no binding | no binding
